Laboratory results from publication PMC9471973 (Computational and Structural Biotechnology Journal, 2022).
No end group written: not given here.

B1: mouse TRIM75 coiled-coil domain (residues 168-222) (domain or fragment, UniProt Q3UWZ0 168-222, looked up)
chain: VTLREQAEAQRSQLTSECEKLMRFLDQEERAAFSRLEDEEMRLEKRLLDNIAALE
modifications: also: homodimer: interchain disulfide between C185 of two chains
B2: mouse TRIM75 coiled-coil domain with the CCm9A mutation (domain or fragment, UniProt Q3UWZ0 168-222, looked up)
chain: VTLREQAEAAASQATSEAEKAMRAADQEARAAFSRAEDEEMRLEKRLLDNIAALE
B3: truncated mouse TRIM75 protein (136-467) containing the coiled coil and C-terminal domains, N-terminal FLAG tag (domain or fragment, UniProt Q3UWZ0 136-467, looked up)
chain: SLHRKHLQDYSKLLKWEVKEIQGLMSALNKRTVTLREQAEAQRSQLTSECEKLMRFLDQEERAAFSRLEDEEMRLEKRLLDNIAALEHHGSSLRDLLRHLMLTGELSEAKMLSTVKDFYLNCRRQLISPSIFPVQLRRVEYSFPLQYSALQKVIQHFTDNVTLDLKTAHPNLLISKDRTCVTFTKKRQRIPGSSSFTKSPVVLGIPHFNSGRHFWEVQVGKKPKWAIGICKADSSIGERQSPNPWGYWRIVWQGDSFNVSGADPDSRLKAARATSIGVFLDYELGEVSFYGMPEKCHLYTFRDTFSGPVCPYFYIGPQSEPLRLCSATDSEC
B4: full-length mouse TRIM75 with N-terminal FLAG tag (natural protein, UniProt Q3UWZ0 1-467, looked up)
chain: MAHVEVLARLQKETKCPICLDDLTDPVTVECGHNFCRSCIKDFWAGQQATSSCPVCRHQCQHRNLRSNAQLGNMIETAQLLQGMENKRHESSTSCERHNQALTLFCEDDLQLLCDQCVEPESHGRHQVLSITEAASLHRKHLQDYSKLLKWEVKEIQGLMSALNKRTVTLREQAEAQRSQLTSECEKLMRFLDQEERAAFSRLEDEEMRLEKRLLDNIAALEHHGSSLRDLLRHLMLTGELSEAKMLSTVKDFYLNCRRQLISPSIFPVQLRRVEYSFPLQYSALQKVIQHFTDNVTLDLKTAHPNLLISKDRTCVTFTKKRQRIPGSSSFTKSPVVLGIPHFNSGRHFWEVQVGKKPKWAIGICKADSSIGERQSPNPWGYWRIVWQGDSFNVSGADPDSRLKAARATSIGVFLDYELGEVSFYGMPEKCHLYTFRDTFSGPVCPYFYIGPQSEPLRLCSATDSEC

Experiments:
crystal structure = molecular target: the molecule itself; experiment: crystal structure
cross-linking [1] = molecular target: the molecule itself; experiment: cross-linking
cross-linking [2] = molecular target: the molecule itself; experiment: cross-linking; remark: listed apart in the source

Protein	stoichiometry N (cross-linking [2])	further results
B1	–	stoichiometry N (crystal structure): 4
B2	–	stoichiometry N (cross-linking [1]): 2
B3	4	–
B4	4	–
